# Assay: yeast display, Sf9 membrane polyspecificity reagent, FACS + sequencing; frameworks hold sequencing errors
# How it was run: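 A nanobody's polyreactivity label depends on the gate it was sorted from. Yeast display cells were stained with 10% biotinylated, detergent-solubilized Sf9 membrane reagent for 1 hour at 4 °C, enriched on streptavidin microbeads and sorted by FACS. The low and high (top ~1%) gates were set on anti-HA fluorescence for expression and streptavidin fluorescence for reagent binding.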
row,Sequence,polyreactivity (PSR sort gate)
1,QVQLVESGGGLVQAGGSLRLSCAASGRIIVPYVMGWYRLAPGKERELVAAISTSGTSTYYADSVKGRFTISRDNAKNTVYLQMNSLKPEDTAVYYCAKRSGARHRLMDYWGQGTQVTVSS,low polyreactivity
2,QVHLVESGGCLVQAGGSLRLSCAASGITFGYYAMGWYRQAPGKERELVAAITTRGGSTSDADSVKGRFTISRDNAKNTVYFQMNSLKPEDNAVYYCAARWRQRKSVRYGQHGYDYWGQGTQVTVSS,high polyreactivity
3,QVQLVESGGGLVQAGGSLRLSCAASGTTYYNAMGWYRQAPGKERELVAAIRFRSGSTYYADSVKGRFTISRDNAKNTVYLQMNSLKPEDTAVYYFAADNKRSWRYAYNYWGQGTQVTVSS,high polyreactivity
4,QVQLVETGRGLVQAGGSLRLSSAASGFTFGPYDMGWYIQAPGKERELVATIRSGDSTKYADSVKGRFTISRDNAKNTVYLQMNSLKPEDSAGYYCARDARASARRKRDDYWGQGTQVTVSS,low polyreactivity
5,QVQLVESGGGLVQAGGSLRLSCAASGSIFVPYAMGWYRQAPGKEREFVAVISLRGSRTYYADSVKGRFTISRDNAKNTVYLQMNSLKPEDTAVYYCATTGYRLRQATRYDYWGQGTQVTVSS,high polyreactivity
6,QVQLGESGGGLVQAGGSLRLSCAASGSTFVVYAMGWYRQAPGKERELVAAITRGASTTYADSVKGRFTISRDNAKNTVYLQMNSLKPEDTAVYYCAAAVAYEYLQSAYTRYYYWGQGTQVTVSS,high polyreactivity
7,QVQLVESGGGLVQAGGSLRLSCAASGYTIYYYAMGWYRQAPGKERELVAVITSRGTRTYYADSVQGRFTISRDNAKNTVYLQMNSLKPEDTAVYYCNKARGVAYDWGQGTQVTVSS,high polyreactivity
8,QDQLVESGGGLDQARGSLRLSCAACGSTFPRYAMGWSRQAPGKERELVAAITASGGSTYYADSVKGRFTISRDNAKNPVYLQMNSLKPEDTAVYYCATPSLYTGYDYWGQGTQVTVSS,low polyreactivity
9,QVQLVESGGGLVQAGGSLRLSCAASGSIFGGNAMGWYRQPPGKERELVAAITDGGNTNYADSVKGRFTISRDNAKNTVYLQMNSMKPEDTAVFYCAARIPGTYGGRYGYDYWGQGTQVTVSS,low polyreactivity
10,QVQLVESGGGLVQAGGRLRLSCAASGRIFYNYAMGWYRQAPGKERELVAAISVSGGSTYYADSVKGRFTISRDNAKNTVYLQMISMKPEDTAVYYCATYSSRQRKSSYYYGGQGTQVTVSS,high polyreactivity
11,QVQLVESGGGLVQAGGSLRLSCAASGSTFWIYAMGWYRQAPGKERELVAAINWSGGNTYYADSVKGRFTISRDNAKNTVYLQMNSLKPEDTAVYYCAAAFYIYGVEGDYWGQGTQVTVSS,low polyreactivity
12,QVQLVESWGGLVQARGRLRLSFAASGSTYQNAMRCYRQAPGKEREFVAAISWSGGSTYYGDSVKGRFTISRDNAKNTVYLQMNSLKPEDTAVYYCAAYSYFSPWYDYWGQGTQVTVSS,high polyreactivity
13,QVQLVESGGGLVQAGGSLRLSCAASGYTFQKYAMGWYRQAPGKERESVAAITRSGTRTYYADSVKGRFTISRDNAKNTVYLQMNSLKPEDTAVYYCAAETYYSIYDYWGQGTQVTVSS,high polyreactivity
14,QVQLVESGGGLVQAGGSLRLSCAASGFIFNKNAMGWYRQAPGKERELVAAITFGGGTTYYADSVKGRFTISRDNAKNTVYLQMNSLKPEDTAVYYCNAVYYWYKGDYWGQGTQVTVSS,high polyreactivity
15,QVQLVESGGGLVQAGGSLRLSCAASGRTFRYYAMGWYRQAPGKERELVASISRRGGSTHYADSVKVRFTISRDNAKNTVYLQMNSLKPEDTAVYYCAAYGYYTKVTKYDYWGQGTQVTVSS,high polyreactivity
16,QVQLVESGGGLVQAGGSLRLSCAASGRTFRYNTMGWYRQAPGKERELVARITRSGGSTYYADSVKGRFTISRDNAKNTVYLQMNSLKPEDTAVYYCAAVPILVYRWFQSYTGDYDYWGQGTQVTVSS,low polyreactivity
17,QVQLVESGGGLVQAGGSLRLSCAASGSIFEIYAMGWYRQAPGKERELVAAISWSGGRTYYADSVKGRFTISRDNAKNTVYLQMNSLKPEDTAVYYCNAGQWRYPGLYYYWGQVTQVTVSS,high polyreactivity
18,QVQLVESGGGLVQAGGSLRISCAASGRTFDPYAMGWYRQAPGKERELVASISRGGSTYADSVKGRFTISRDNAKNTVYLQMNSLKPEDTAVYYCNTSLYTEGDAMDYWGQGTQVTVSS,low polyreactivity
19,QVQLVESGGGLVQAGGSLRLSCAASGRIFNYNAMGWYRQAPGKERELVAVITSGDSTNYADSVKGRFTISRDNAKNTVYLQMNSLKPEDTEVYYCAAEYYSIRYGPHSIEVYGMDYWGQGTQVTVSS,low polyreactivity
20,QVQLVESGGGLVQAGGSLRLSSAASGFIFTDYAMGWYIEAPGKEREFVAAIDWSGGNTYYADSVKGRFTISRDNAKNTVYLQMNSLKPEDTAVYYCAASGSAREYDYWGQGSQVTVSS,low polyreactivity
21,QVQLVESGGGLVQAGGSLRLSCAASGSTLYWNAMGWYRQAPGKERELVAGISIGGRTNYADSVKGRFTISRDNAKNTVYLQMNSLKPEDTAVYYCNAENTYLGSRYRPYNYWGQGTQVTVSS,low polyreactivity
22,QVQLVESGGGLVQAGGSLRLICAASGNIFHRYAMGWYRQAPGKERELVAAINGGGGSTYYADSVKGRFTISRDNAKNTVYLQMNSLKPEDTAVYSCAAVVQNGVHIYDYWGQGTQVTVSS,high polyreactivity

row,Sequence,polyreactivity (PSR sort gate)
1,QVQLVESGGGLVQAGGSLRLSCAPSGRIFAGYTMGWYRQAPGKERELVAAISWSGGRTYYADSVKGRFTISRDNAKNTVYLQMNSLKPEDTAVYYCAKDGRYYSHYNYWGQGTQVTVSS,high polyreactivity
2,QVQRVESWGGLVQAGCRLRLSCAASGIFRRYAMGWYRQAPGKERELVAAISSSGGSTDYADSVKGRFTISRDNAKNTVYLLMNSLKPEDTAVYYCNAYDLHGWWSYAYDYWGQGTQVTVSS,high polyreactivity
3,QVHLVESGGGLVQAGGSLRLSCAASGRTFREYFMGWYRQAPGQERELVAVISWSTGSTYADSVKGRFTISRDNAKNTVYLQMNSLKPEDTAVYYCARRVQSLRNVVIYNYWGQGTQVTVSS,low polyreactivity
4,QVQLVESGGGLVQAGGSLRLSCAASGSIFDFNALGWYRQAPGKERELVAAITYSGGRTYYADSVKGRFTISRDNGKYTVYLQMNSMKPEDTAVFYCAVNSFSGHGDYWGQGTQVTVSS,low polyreactivity
5,QVQLVESGGGLVQAGGSLRLSCAASGSTFNGYAMGWYRQAPGKERELVADISRGDRTNYADSVKGRFTISRDNAKNTVYLQMKSLKREDTAVYYCAKDWLTDDPDKDPSVEYDYWGQGTQVTVSS,low polyreactivity
6,QVQLVESGGGLVQAGGSLRLSCAASGSIFYKYAMGWYRQAPGKEREFVAAITGSGVRTYYADSVKGRFTISRDNAKNTVYLQMNRLKPDDTAVYYCAASSYGYDYWGQGTQVTVSS,high polyreactivity
7,QVQLVESGGGLVQAGGSLRLSCAASGRIFGLYAMGWYRQAPGKERELVAAINRTGNTNYADSVKGRFTISRDNAKNTVYLQMNSLKPEDTAVYYCAARFPYWRRYDYWGQGTQVTVSS,high polyreactivity
8,QVQLVESGGGLVQAGGRLRLSCAASGFIVDDNTIGWYRQAPGKEREVFAAISYSAGSTYYADSVKGRFTISRDNAKNTVYFQLNSLKPEDTAVYYCAAQHYWVTCYLSSYDYWGQGTQVSVSS,low polyreactivity
9,QVQLVESGGGLVQAGGSLRLSCAASGSIFTLNAMGWYRQAPGKERELVAAISRSGGSTYYADSVKGRFTISRDNAKNTVYLQLNSLKPEDTAVYYCAVYVTRDSGWWLYDYWGQGTQVTVSS,high polyreactivity
10,QVQLVESGGGLVQAGGSLRLSCAASGRTFLEYAMGWYRQAPGKERELVASITWSGDTTYYADSVKGRFTISRDNAKNTVYLQMNSLKPEDTAVYYCAAGYYYPNTYYSYDWYDYWGQGTQVTVSS,low polyreactivity
11,QVQLVESGGGLVQAGGRLRLSCAASGSIFEGYVMGWYRQAPGKERELVAAITTGGGSTYYADSVKGRFTISRDNAKNTVYLQMNSLKPEDTAVYYCAKDGGRWGQGTQVTVSS,low polyreactivity
12,QVQLVESAGGLVQAGGSLRLSCAASGSTFTGYAMGWYRQAPGKERELVAAITYSGVRTNYADSVKGRFTISRDNANNTVYLQMNSLKPEDTAVYYCNAAVVYVKMDYWGQGTQVTVSS,low polyreactivity
13,QVQLVESGGGLVQAGGSLRLSCAASGSTFGSYAMGWYRQAPGKERELVAAISRSGTSTYYADSVKGRFTISRDNAKNTVYLQMNSLKPEETAVYYCAAKFVTSGGLEGYWGQGTQVTVSS,high polyreactivity
14,QVQLVESGGGLVQAGGRLRLTCAASGFTFRYYAMGWYRQAPGKERELVATITRGGSTNYAESVKWRFTISRDNAKNTVYFQMNSLKPEDTAVYYCATGKIYWRGYEYWGQGTQVTVSS,high polyreactivity
15,QVQLVESGGGLVQAGGSLRLSCAASGLTFVYYAMGWYRQAPGKERELVAAISGVGSTHYADSVKGRFTISRDNANNTVYLQMNSLKPEDTAVYYCNADYAYFWGWYGDWGQGTQVTVSS,low polyreactivity
16,QVQLVESGGGLVQAGGSLRLSCAASGRIFGYNTMGWYRQPPGKERELVAAITSTGRTYYADSVKGRFTISRDNAKNTVYLQMNSLKPEDTAVYYCNARSSYGWPKYYYWGQGTQVTVSS,high polyreactivity
17,QVHLVESGGGLVQAGGSLRLTCAASGSTFVPYAMGWYRQAPGKERELVAAISTSSGGTYYADSVKGRFTISRDNEKNTVYLQMNSLKPEDTAVYYCAAELVYVPHWLIYDYWGQGTQVTVSS,high polyreactivity
18,QVQLVESGGGLVQAGGSLRLSCAASGSTFTKYAMGWYRKAPGKERELVAAITYSGGRTYYADSVKGRFTISRDNAKNTVYLQMNSLKPEDTAVYYCAAATYAGKPMEYWGQGTQVTVSS,high polyreactivity
19,QVQLVESGGGLVQSGGSLRLSCAASGFIFLSYAMGWYRQAPGKERELVAAISRRGGSTYYADSVKGRFTISRDNAKYTVYLQMNSLKPEDNAVYYCAADYGRITYNYWGQGTQVTVSS,high polyreactivity
20,QVQLQESGGGLVQACGSLRLSCAASGYIFSHQYMGLYRQAPGKERELVASISPGATTNYADSVKGRLTISRDNAKNTVYLQMNSLKPEDTAVYYYAVYQILDRRLSYWGQGTQVTVSC,high polyreactivity
21,QVQLVESGGGLVQAGGSLRLSCAASGLTFTYYAMGWYRQAPGKERELVAAISWSGGSTYYADSVKGRFTISRDKAKNTVYLQMNSLKPEDTAVYYCAAVDPFTPYDRTYTTDGRESDYWGQGTQVTVSS,low polyreactivity

# — the nanobody polyreactivity screen of Harvey et al. (2022)
